This note sets out measurements from US20240002547A1 (AEBI, published 2024).

Positions of bridges follow the written chain, without caps; N, C: chain ends. No end group written: not given here.

The test concerns the target human eukaryotic elongation factor 2 (eEF2) (human, UniProt P13639 2-858). The experiment in a line: peptide screening by the technique of WO 2007/010525.

CRRGSRASGAHC (disulfide 1-12 (inferred)) [Tox2]: the binding result was “binds”.

For CSARWGPTMPWC (disulfide 1-12 (inferred)) [Tox1], the binding result was “binds”.
